Experimental data published in paper PMC4183798.

Target: Fc-Nxph1mat-N146D/N156D/N162D (rat) (UniProt Q63366)
Experiment: SPR; reversed experiment: purified Fc-Nxph1·LNS2-HA complex (formed by co-expression) bound covalently and randomly to a CMD 200m chip (EDC-NHS); running buffer 50 mM Tris pH 7.4; serial injections of elution solutions (pH 4, pH 8.9, 0.25–4 M NaCl, 5 mM EDTA, 6 M urea, 7 M guanidinium chloride); Reichert SR7000DC

Chain of UniProt Q63366 (Q63366 22-271 N146D/N156D/N162D): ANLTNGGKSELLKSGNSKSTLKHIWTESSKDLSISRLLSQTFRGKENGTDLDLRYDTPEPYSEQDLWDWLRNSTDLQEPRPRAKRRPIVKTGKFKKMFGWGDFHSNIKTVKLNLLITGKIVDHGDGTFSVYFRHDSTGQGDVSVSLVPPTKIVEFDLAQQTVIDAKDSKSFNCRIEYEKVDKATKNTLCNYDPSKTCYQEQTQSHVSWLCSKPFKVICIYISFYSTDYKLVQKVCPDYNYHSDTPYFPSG

Substance: C-terminally hemagglutinin (HA)-tagged LNS2 (domain or fragment)
- percent of the complex released after injection of 1 M NaCl: 9%
